Drawing on US20090202520A1, this text covers Kd for one molecule.

The experiment addresses serum amyloid P (SAP) (human), P02743. Kind of experiment: SPR (Biacore X100), SAP on CM5 chip, soluble receptor flowed, single cycle kinetics, KD = Kd/Ka. To be noted: remark: other sources report otherwise. Background: SPR reads the build-up and loss of mass on a sensor chip optically.

serum amyloid P (SAP) (human), P02743, sequence (P02743 20-223): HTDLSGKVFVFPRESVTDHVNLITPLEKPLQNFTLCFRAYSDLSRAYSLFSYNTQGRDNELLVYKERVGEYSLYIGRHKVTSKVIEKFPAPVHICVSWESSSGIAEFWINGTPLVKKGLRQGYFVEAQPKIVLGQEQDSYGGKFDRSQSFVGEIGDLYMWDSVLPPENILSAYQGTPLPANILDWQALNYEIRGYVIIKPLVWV

B1: soluble recombinant FcγRIIIB (sFcγRIIIB), O75015 17-200 (receptor, UniProt O75015 17-200, looked up, not shown: small tags and cut ends)
chain: GMRTEDLPKAVVFLEPQWYSVLEKDSVTLKCQGAYSPEDNSTQWFHNENLISSQASSYFIDAATVNDSGEYRCQTNLSTLSDPVQLEVHIGWLLLQAPRWVFKEEDPIHLRCHSWKNTALHKVTYLQNGKDRKYFHHNSDFHIPKATLKDSGSYFCRGLVGSKNVSSETVNITITQGLAVSTIS
The Kd is the constant that tells how readily two partners part at equilibrium. Molecule B1 returned a Kd of 0.4 nM. This lies in the sub-nanomolar range.
